Like-named read-outs stand apart in the source and are kept apart here.

As usually defined, the Kd is the constant that tells how readily two partners part at equilibrium. As usually defined, the koff is a measure of how fast the partners let go of each other. As a reminder, the kon is the second-order rate constant of association.

Common to all, as to experiment: SPR
(In general: Surface plasmon resonance follows binding to a sensor surface in real time, without labels.)

Assay [1] addresses T1, wild type sorcin (soluble resistance-related calcium binding protein) ( (human or Chinese hamster …, UniProt P05044 1-198)).
T1 sequence (looked up): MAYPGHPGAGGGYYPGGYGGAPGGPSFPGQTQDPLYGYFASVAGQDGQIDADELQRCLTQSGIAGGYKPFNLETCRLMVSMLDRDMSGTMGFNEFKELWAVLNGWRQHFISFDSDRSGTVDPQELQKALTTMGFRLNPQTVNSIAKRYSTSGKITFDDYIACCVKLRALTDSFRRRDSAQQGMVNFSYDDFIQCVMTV

The next assay has as its target T2, sorcin W105G variant ( (human or Chinese hamster …, UniProt P05044 1-198, W105G)).
T2 sequence (looked up): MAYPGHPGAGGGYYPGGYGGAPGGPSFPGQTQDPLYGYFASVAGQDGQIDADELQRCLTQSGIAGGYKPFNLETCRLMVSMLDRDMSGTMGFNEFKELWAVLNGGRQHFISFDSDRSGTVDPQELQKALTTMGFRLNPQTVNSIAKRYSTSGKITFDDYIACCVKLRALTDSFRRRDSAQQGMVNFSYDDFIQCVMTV

Assay [2] concerns the target T1, wild type sorcin (soluble …). This is another data set of the same source.
Assay [3] shares this target. The source holds these as a separate data set.

B1: NCX1 Calcium Binding Domain 1 (CBD1) (domain or fragment, Mus musculus, UniProt P70414 397-539, looked up)
chain: MAENDPVSKIFFEQGTYQCLENCGTVALTIMRRGGDLSTTVFVDFRTEDGTANAASDYEFTEGTVIFKPGETQKEIRVGIIDDDIFEEDENFLVHLSNVRVSSDVSEDGILESNHASSIACLGSPSTATITIFDDDHAGIFTF
As to B1, the Kd in assay [1] was 7000 nM; in assay [3], 1200 nM. For the same molecule, the koff was determined as 0.27 ± 0.1 s⁻¹ in assay [1], 0.9 ± 0.4 s⁻¹ in assay [2] and 0.08 ± 0.1 s⁻¹ in assay [3]. The kon in assay [1] is 40000 M⁻¹ s⁻¹; in assay [3], 70000 M⁻¹ s⁻¹. In addition, in the assay with sorcin W105G variant, the binding result is on record as “binds”.

B2: NCX1 Calcium Binding Domain 2 (CBD2) (domain or fragment, Mus musculus, UniProt P70414 527-712, looked up)
chain: TIFDDDHAGIFTFEEPVTHVSESIGIMEVKVLRTSGARGNVIIPYKTIEGTARGGGEDFEDTCGEPEFQNDEIVKTISVKVIDDEEYEKNKTFFIEIGEPRLVEMSEKKALLLNELGGFTLTGKEMYGQPIFRKVHARDHPIPSTVITISEEYDDKQPLTSKEEEERRIAEMGRPILGEHTKLEVI
On to B2, for which, in assay [1], the Kd worked out at 3000 nM, the koff was found to be 0.24 ± 0.1 s⁻¹ and the kon is 80000 M⁻¹ s⁻¹. For the same molecule, the koff in assay [2] is 0.6 ± 0.2 s⁻¹. In assay [3], the Kd worked out at 1000 nM, the koff is 0.05 ± 0.03 s⁻¹ and the kon was 50000 M⁻¹ s⁻¹.

These data come from paper PMC2958309 (Journal of Molecular and Cellular Cardiology, 2010).
